The target of series [1] is T1, recombinant carbonic anhydrase IX (Homo sapiens, UniProt Q16790).
T1 construct: Recombinant CAIX was expressed as described previously; made in house
As to the kind of experiment: biochemical. The class given is binding. The method, then:
The FP was measured on a Spectra Max Paradigm multimode plate reader (Molecular Devices). Experiments were performed in triplicate and data analyzed as described by Wang and co-workers.^[4]

Series [2] in a line: Estimation of the recommended therapy dose (tolerability). The class given is in vivo, mouse. As to conditions: for tolerated dose: nude mice, one mouse per regimen. On the procedure: Estimation of the recommended therapy dose of a) 7a and b) 8a in nude mice was performed by studying different dosages using a schedule of five injections on five consecutive days compared to vehicle (5% DMSO in PBS pH 7.4). The dosage regimens were 0.4 nmol/day, 1.3 nmol/day, 4.0 nmol/day and 13.3 nmol/day. One mouse was used for each regimen.
Estimation of the recommended therapy dose and schedule of DM1 conjugate 9a was studied in SKRC52 tumor bearing nude mice. One mouse was used for testing each dosing scheme. Injections were given daily starting on day 0 in 5% DMSO in PBS pH 7.4 (150 μL). […] Since the animals in this study weighed on average 18% less than those used in the therapy study, a dose of 70 nmol per injection was used for the therapy experiment.

Series [3] can be described thus: Hydrolytic stability in PBS pH 7.4 at 37 C (MS/MS or HPLC). The class given is physicochemical. Also noted: half-life: dose or concentration left out as unconfirmed. As to conditions: PBS pH 7.4, 37° C.; for half-life: read-out: t1/2 in PBS (converted). The method, then:
(§1) Targeted carbonate or carbamate 7a or 8a (30 μg) was dissolved in PBS pH 7.4 (1.5 mL) and incubated at 37° C. under gentle agitation. Aliquots (100 μL) were removed at different time points and diluted 1:1 with an internal standard of etodolac (TCI Chemicals) in MeOH (20 μg mL^−1). Small molecules were separated from salts using an Oasis WAX online sample preparation column (Waters) on an Alliance HT separation module (50 μL injections, 0.3 mL min^−1 0.1% aq. HCOOH for 3 min followed by 0.3 mL min^−1 MeCN for 7 min, Waters) and analyzed by mass spectrometry/mass spectrometry (MS/MS) on a Quattro API spectrometer (Waters) monitoring appropriate multiple reaction monitoring (MRM) transitions for 8a, 8b and etodolac as standard. Measurements were performed in triplicate, peaks integrated and the fraction of intact test compounds calculated as fraction of signal at time t divided by signal at time zero. Since signals due to etodolac were constant over time a further correction using the internal standard as reference was omitted. For stability measures in mouse serum, compounds were dissolved in freshly thawed mouse plasma (Invitrogen), aliquots taken at different time points and diluted with an equal volume of MeCN. After vigorous vortexting for 1 min, protein precipitate was spun down and the supernatant analyzed as above.
Targeted DM1 conjugate 9a (230 μg, 140 nmol) was dissolved in PBS pH 7.4 (1 mL) and incubated at 37° C. under gentle agitation. […] Water (600 μL) was added and aliquots of this mixture (50 μL) analyzed over a Syngergi RP Polar column (150×4.6 mm, 4 μm, Phenomenex) on an Alliance HT separation module (1 mL min^−1 5% MeCN in 0.1% aqueous TFA to 100% MeCN over 20 min, Waters). Analytes were detected using a Water 2996 photo array UV/VIS detector (Waters). Measurements were performed in triplicate, peaks integrated and the fraction of intact test compounds calculated as fraction of signal at time t divided by signal at time zero. […] After vigorous vortexting for 1 min, protein precipitate was spun down and the supernatant analyzed as above.

Series [4] relates to CAIX expressing SKRC52 cells. As to the kind of experiment: In vitro cytotoxicity assay (MTS). The class given is cell-based, human. As to conditions: Condition (b): 1 h exposure, wash, then 72 h; concentrations up to 300 nM. On the procedure:
SKRC52 or A549 cells were seeded in 96-well plates in their appropriate culture medium (100 μL) at a density of 5000 cells per well and allowed to grow for 24 h. The medium was replaced with medium containing different concentrations of test substance (100 μL, 300 nM-15 pM in 1:3 dilution steps) and plates were either:
(a) incubated for 72 hours in the presence of the toxic substance, or
(b) incubated for 1 h under standard culture conditions, followed by removal of the medium containing the toxic substance, gently washing the cells fresh medium once and adding new medium (100 μL) and incubating for 72 h under culture conditions.
MTS cell viability dye (20 μL, Promega) was added, the plates were incubated for 1 h under culture conditions and the absorbance at 490 nm measured on a Spectra Max Paradigm multimode plate reader (Molecular Devices). Experiments were performed in triplicate and average cell viability calculated as measured background corrected absorbance divided by the absorbance of untreated control wells. EC50 values were determined by fitting data to the four-parameter logistic equation.

A further series concerns SKRC52 xenograft tumors. The following applies: for tumor growth effect: 5 doses of 4 nmol on 5 consecutive days, 7a vs vehicle p<0.0001, vs 7b plus AAZ p<0.05. On the procedure:
SKRC52 xenograft tumors were implanted into balb/c nu/nu mice (Charles River) as described above. […] 5 doses of 4 nmol 7a,b, 8a,b or 7 doses of 70 nmol 9a,b each in PBS pH 7.4 (150 μL) containing 5% DMSO were given on 5 or 7 consecutive days and one group was treated with vehicle (5% DMSO in PBS pH 7.4). In the case of 7-9b an equimolar amount of AAZ was added to the injection solution to control for a possible antitumor activity of CAIX inhibitors. Sorafenib and sunitnib were administered at a standard dose of 30 mg/kg as described previously.^[5] Animals were weighed and tumor sizes measured daily and the tumor volume calculated according to the formula (long side)×(short side)^2×0.5. […] Prism 6 (GraphPad Software) was used for data analysis (regular two-way ANOVA with the Bonferroni test).

Series [5] is described as follows: Stability in mouse plasma/serum at 37 C. The class given is in vitro ADME. The method, then: as §1
Targeted DM1 conjugate 9a (230 μg, 140 nmol) was dissolved in PBS pH 7.4 (1 mL) and incubated at 37° C. under gentle agitation. Aliquots (100 μL) were removed at different time points and diluted 1:1 with an internal standard solution of etodolac (TCI Chemicals) in MeCN (20 μg mL^−1). Water (600 μL) was added and aliquots of this mixture (50 μL) analyzed over a Syngergi RP Polar column (150×4.6 mm, 4 μm, Phenomenex) on an Alliance HT separation module (1 mL min^−1 5% MeCN in 0.1% aqueous TFA to 100% MeCN over 20 min, Waters). Analytes were detected using a Water 2996 photo array UV/VIS detector (Waters). Measurements were performed in triplicate, peaks integrated and the fraction of intact test compounds calculated as fraction of signal at time t divided by signal at time zero. Since signals due to etodolac were constant over time a further correction using the internal standard as reference was omitted. For stability measures in mouse serum, compounds were dissolved in freshly thawed mouse plasma (Invitrogen), aliquots taken at different time points and diluted with an equal volume of MeCN. After vigorous vortexting for 1 min, protein precipitate was spun down and the supernatant analyzed as above.

Series [6] relates to subcutaneous SKRC52 tumors. As to the kind of experiment: Analysis of tumor penetration by fluorescence microscopy. The class given is in vivo, mouse. As to conditions: 50 nmol intravenous; for tumor staining / penetration by fluorescence microscopy: Alexa546 probes. On the procedure:
After warming to −20° C., samples were cut into sections of 10 μm width and directly imaged on an Axioskop 2 fluorescence microscope (Zeiss).

For series [7], the system named is CAIX expressing SKRC52 cells. As to the kind of experiment: Ligand binding analysis by flow cytometry, SKRC52. The class given is cell-based, human. The following applies: 30 nM dye conjugate, 1 h at 0° C., washed. On the procedure: Cells were detached from culture plates using a 50 mM EDTA solution in phosphate buffered saline (PBS) pH 7.4, counted and suspended to a final concentration of 1.5×10^6 cells mL^−1 in a 1% v/v solution of FCS in PBS pH 7.4. Aliquots of 3×10^5 cells (200 μL) were spun down and resuspended in solutions of IRDye750 (Licor) labeled ligands (30 nM) in a 1% v/v solution of FCS in PBS pH 7.4 (200 μL) and incubated on ice for 1 h. Cells were washed once with 200 μL 1% v/v solution of FCS in PBS pH 7.4 (200 μL), spun down, resuspended in 1% v/v solution of FCS in PBS pH 7.4 (300 μL) and analyzed on a FACS Canto flow cytometer (BD Bioscience). FlowJo Version 8.7 (Treestar) was used for data analysis and visualization. Results were as follows: • (1) Flow cytometry analysis of binding of ligand-IRDye750 conjugates 1c-6c (FIG. 1) to CAIX expressing SKRC52 cells.
Flow cytometry was performed as described above with monovalent and bivalent near infrared dye conjugates B3 and B4 and negative control conjugates lacking the ligand on CAIX-positive SKRC52 cells and CAIX-negative HEK cells^5.
(In general: A flow cytometer gives signals particle by particle.)

Series [8] deals with subcutaneous SKRC52 tumors.
Experimental: SKRC52 cells were grown to 80% confluence and detached with Trypsin-EDTA 0.05% (Invitrogen). Cells were washed with PBS pH 7.4 once, counted and resuspended in PBS to a final concentration of 6.7×10^7 cells mL^−1. Athymic balb/c nu/nu mice, 8-10 weeks of age (Charles River) were anesthetized with isofluorane and aliquots of 1×10^7 cells (150 μL of suspension) injected subcutaneously into their lower back.
Food and water was given ad libitum during that period.
Mice were subsequently sacrificed by cervical dislocation.
Setting [9] is: five injections on five consecutive days.
Setting [10] is: 7×70 nmol on 7 consecutive days.

Consider `COc1cc2[nH]cc(C(=O)N3C[C@@H](CCl)c4c3cc(OC(=O)OCCSSC[C@H](NC(=O)[C@H](CC(=O)O)NC(=O)[C@H](CCCNC(=N)N)NC(=O)[C@H](CC(=O)O)NC(=O)CCCCn3cc(CCCC(=O)Nc5nnc(S(N)(=O)=O)s5)nn3)C(=O)O)c3ccccc43)c2cc1OCCN(C)C` [Compound 7a, AAZ Targeted CBI Carbonate], for which, in series [1], the Kd (in general, the constant that tells how readily two partners part at equilibrium) stood at 7.3 ± 0.5 nM and the “binding affinity for recombinant CAIX in vitro (in words)” value (shortened to “binding affinity for recombinant CAIX”) is reported as “retain binding affinity for recombinant CAIX in vitro”. Besides, in series [2] (setting [9]), the “tolerability at 13.3 nmol/day” value is recorded as “poorly tolerated” and the tolerated dose entry is reported as “up to 4.0 nmol/day”. The half-life in series [3] is 15 h. Moreover, the EC50 – broadly, the midpoint of the concentration-response curve – in [4] is 0.7 ± 0.1 nM. Moreover, the tumor growth effect result in the series on SKRC52 xenograft tumors is recorded as “statistically significant tumor growth retardation”. Also, the half-life in series [5] (mouse plasma, MS/MS, errors <1 min, read-out: Half lives in mouse plasma) worked out at 0.717 h. Besides, in series [5] (mouse serum, read-out: t1/2 in mouse serum in vitro), the half-life came out at 0.717 h.

Regarding “tert-butyl (2-(2-(2-aminoethoxy)ethoxy)ethyl)carbamate Alexa546 conjugate [Compound 6b]”, the “tumor staining / penetration by fluorescence microscopy” value in [6] is “cannot be detected inside the tumor”.

Consider `COc1cc2cc(c1Cl)N(C)C(=O)C[C@H](OC(=O)[C@H](C)N(C)C(=O)CCSSC[C@H](NC(=O)[C@H](CC(=O)O)NC(=O)[C@H](CCCNC(=N)N)NC(=O)[C@H](CC(=O)O)NC(=O)CCCCn1cc(CCCC(=O)Nc3nnc(S(N)(=O)=O)s3)nn1)C(=O)O)[C@@]1(C)O[C@H]1[C@H](C)[C@@H]1C[C@@](O)(NC(=O)O1)[C@H](OC)/C=C/C=C(\C)C2` [Compound 9a, Targeted DM1 Conjugate], for which, in series [1], the Kd turned out to be 26.5 ± 2.5 nM and the “binding affinity for recombinant CAIX” value is recorded as “retain binding affinity for recombinant CAIX in vitro”. Besides, the “tolerability of six doses of 60 nmol” value in [2] (daily injections, SKRC52 tumor bearing nude mice) was “tolerated with only minimal weight loss”. Further, the “decomposition in PBS (in words)” value in [3] (HPLC) is given as “No decomposition was observed”. In the series on SKRC52 xenograft tumors (setting [10]), the anti-tumor effect entry is listed as “potent anti-tumor effect”, the “time after start of treatment at which tumors started regrowing” value was 20 days and the “toxicity (body weight)” value is given as “no detectable body weight loss”. In addition, the half-life in [5] (mouse serum, HPLC, read-out: t1/2 in mouse serum (converted)) is 20 h.

Regarding “N1-(2-(2-(2-aminoethoxy)ethoxy)ethyl)-N4-(5-sulfamoyl-1,3,4-thiadiazol-2-yl)succinamide Alexa546 conjugate [Compound 1b]”, in [6], the “fluorescence in organs by microscopy” value is “strong fluorescence due to 1b inside the tumor and the intestine”; the “tumor staining / penetration by fluorescence microscopy” value is “staining of the tumor with 1b is initially highest in well-perfused areas”.

Consider `COc1cc2[nH]cc(C(=O)N3C[C@@H](CCl)c4c3cc(OC(=O)N(C)CCSSC[C@H](NC(=O)[C@H](CC(=O)O)NC(=O)[C@H](CCCNC(=N)N)NC(=O)[C@H](CC(=O)O)NC(=O)CCCCn3cc(CCCC(=O)Nc5nnc(S(N)(=O)=O)s5)nn3)C(=O)O)c3ccccc43)c2cc1OCCN(C)C` [Compound 8a, AAZ Targeted CBI Carbamate], for which the Kd in series [1] was 40.3 ± 2.6 nM. The “binding affinity for recombinant CAIX” value in series [1] is “retain binding affinity for recombinant CAIX in vitro”. The tolerated dose in series [2] (setting [9]) is given as no more than 13.3 nmol/day. Further, the half-life in series [3] (buffer) is greater than 24 h; in [5] (plasma, MS/MS, errors <1 min, read-out: Half lives in mouse plasma), 1.02 h; in [5] (serum, read-out: t1/2 in mouse serum in vitro), 1.02 h. In addition, the tumor growth effect entry in the series on SKRC52 xenograft tumors was “did not lead to any retardation in tumor growth”.

Consider `CC(C)(C)OC(=O)NCCOCCOCCNC(=O)CCCCc1ccc(C2=C(/C=C/C3=[N+](CCCCS(=O)(=O)O)c4ccc(S(=O)(=O)O)cc4C3(C)C)CCC/C2=C\C=C2\N(CCCCS(=O)(=O)O)c3ccc(S(=O)(=O)[O-])cc3C2(C)C)cc1` [Compound 6c, reference compound], for which the “binding to SKRC52 cells (fluorescence shift)” value in [7] was “only shows little residual binding”. The “tumor targeting by near infrared imaging” value in series [8] (3 nmol intravenous, 1-12 h) is “does not reach the tumor”. Besides, in series [8] (mouse, in vivo), the “accumulation in extracted tumor and organs (imaging)” value is “very little tumor or organ accumulation”.

Source of the values: US9884122B2, “Small molecule drug conjugates” (Philochem AG, priority 2014, dated 2018).
